Read-outs that look alike come from different tables or passages of the source.

Data set [1] deals with S. aureus RNase P RNA. The data set can be described thus: Filter binding / gel-shift assay of RNase P protein to RNase P RNA.
Method: The RNase P RNA/protein interactions were investigated by gel mobility shift and filter binding experiments.
Binding isotherm of RNase P RNA obtained by filter binding assay was asswssed. The 3′-end labeled RNA was mixed with the protein in the binding buffer containing 20 mM K-Hepes, pH8.0, 0.01% NP-40, 400 mM NH4OAc, 10 mM MgCl2, and 5% glycererol. The Kd value was generated by fitting the data with Grafit 4 one-site ligand binding equation: % binding=plateau/(1+Kd/[S. aureus protein]).
The test system of data set [2] is p6AT-1. The data set can be described thus: Cleavage of minimal substrate p6AT-1 by RNase P RNA or holoenzyme (gel, autoradiography). Format: biochemical. The method, then: The chemically synthesized 42nt RNA molecule p6AT-l was 5′ end-labeled with high specific activity [γ-^32p] ATP ([…]) using bacteriophage T4 polynucleotide kinase. The labeling was performed in a 10 μl reaction at 37° C. for 30 min. The enzyme was heat-inactivated at 95° C. for 2 min. To remove salts, unincorporated nucleotides and the enzyme, p6AT-1 was gel purified from a 20% polyacrylamide TBE gel with 7M urea. The RNA was extracted from the gel slice and precipitated with 300 mM NaOAc and 2.5 volumes 100% ethanol. After a spin at 14,000 g and 4° C. the RNA pellet was washed twice with chilled 70% ethanol. The pellet was air dried and subsequently resuspended in 50 μl water. 0.5 μl were spotted onto a filter paper disk and counted in a scintillation counter (Cherenkov analysis).
(§1) E. coli M1 RNA is able to cleave ptRNA^met or the minimal substrate p6AT-1 in 100 mM NH4Cl, 100 mM TrisCl pH 7.5, 100 mM MgCl2. The conditions for cleavage of either substrate by S. aureus SP RNA were unknown and clearly deviated from those optimized for E. coli. A large number of different buffer conditions were investigated in order to determine optimal buffer conditions for either substrate cleavage by the S. aureus ribozyme.
(§2) Cleavage reactions (20 μl) were all performed at 37° C. for 30 min with 100 nM SP RNA and an additional 200 nM SP protein in the holoenzyme reactions. Substrates (ptRNA^met or p6AT-1) were added in trace amounts (single-turnover reactions). Cleavage was monitored by size resolution of the intact precursor and the cleaved leader sequence by denaturing gel elctrophoresis and autoradiography or visualization on the phosphorimager (Molecular Dynamics Storm 860).

For data set [3], the system named is S. aureus pre-tRNA^phe. The data set can be described thus: RNase P kinetics (Michaelis Menten) with cloned pre-tRNAphe as substrate. It counts as biochemical. Particulars: 50 mM Tris pH8.0, 1 M NH4Cl, 200 mM MgCl2, 5% PEG.
Method: A cloned pre-tRNA^phe was used as a substrate for kinetic characterizations for both the holoenzyme and RNA only reactions.
RNase P RNA-only kinetics in the following buffer: 50 mM Tris, pH8.0, 1 M NH4Cl, 200 mM MgCl2, and 5% PEG. […] In both experiments, a cloned pre-tRNA^phe was used as substrate.
For data set [4], the system named is E. coli ptRNA^met. Put plainly: Cleavage of ptRNAmet by RNase P RNA or holoenzyme (gel, autoradiography). Format: biochemical. Particulars: 100 mM TrisCl pH8, 100 mM MgCl2, 5% PEG. As to the method: E. coli ptRNA^met, a substrate for RNase P, was transcribed in vitro by T7 RNA polymerase (Epicenter) in the presence of [α-32P] UTP to internally label the RNA. The DNA template pGem3Z-ptRNA was linearized with BstNI restriction endonuclease to allow run-off transcription. The transcription was performed in a 20 μl reaction at 37° C. for 60min. To remove unincorporated nucleotides the 93 nt RNA (sequence shown below) was cleaned under non-denaturing conditions using a CLONTECH Chroma-Spin 10 column. To calculate the specific activity of the RNA probe, 1 μl samples were removed before and after cleaning, mixed with 5 ml scintillation cocktail and counted in a scintillation counter. ptRNAmet in pGem-3Z, sequence of the transcript (93mer) 5′→3′ [SEQ ID NO: 12]: GGGCGAAUUCGCCUCGGCUACGUAGCUCAGUUGGUUAGAGCACAUCACUCAUAAUGAUGGGGUCACAGGUUCGAAUCCCGUCGUAGCCACCAG
as §1, §2

B1: S. aureus RNase P protein: 117 amino acid translation product of the S. aureus spp gene, SEQ ID NO:2, expressed as MBP fusion and cleaved (protein, listed as Staphylococcus aureus)
chain: MLLEKVYRIKKNADFGRIYKKGHSVANRQFVVYTCNNKEIDHFRLGISVSKKLGNAVLRNKIKRAIRENFKVHKSHILAKDIIVIARQPAKDMTTLQIQNSLEHVLKIAKVFNKKIK
In the case of B1, the Kd in data set [1] (20 mM K-Hepes pH8.0, 0.01% NP-40, 400 mM NH4OAc, 10 mM MgCl2, 5% glycererol, 3′-end labeled RNA, read-out: Kd, filter binding isotherm) was determined as 8 ± 1 nM; in data set [1] (filter binding and gel-shift assays, read-out: binding constant of the complex) it was 20 nM.

B2: SP RNA: S. aureus RNase P catalytic RNA component, transcribed in vitro from plasmid pSPR with T7 RNA polymerase; gene SEQ ID NO:3 (nucleic acid, listed as Staphylococcus aureus)
DNA: GTTCTGATATTTTGGGTAATCGCTATATTATATAGAGGAAAGTCCATGCTCACACAGTCTGAGATGATTGTAGTGTTCGTGCTTGATGAAACAATAAATCAAGGCATTAATTTGACGGCAATGAAATATCCTAAGTCTTTCGATATGGATAGAGTAATTTGAAAGTGCCACAGTGACGTAGCTTTTATAGAAATATAAAAGGTGGAACGCGGTAAACCCCTCGAGTGAGCAATCCAAATTTGGTAGGAGCACTTGTTTAACGGAATTCAACGTATAAACGAGACACACTTCGCGAAATGAAGTGGTGTACGACAGATGGTTATCACCTGAGTACCAGTGTGACTAGTGCACGTGATGAGTACGATGGAACAGAACATGGCTTATAGAAATATCACTACTA
modifications: RNA transcript of gene
As for B2, the p6AT-1 cleavage result is on record as “No cleavage” in data set [2] (10 mM MgCl2, 2M KCl, 100 mM TrisCl pH8, 5% PEG); “hardly any cleavage product detectable” in data set [2] (1M KCl or NH4Cl, 100 mM TrisCl pH7.5, 100 mM MgCl2); “No cleavage” in data set [2] (KCl below 400 mM, 100 mM TrisCl pH8, 100 mM MgCl2, 5% PEG). In data set [2] (1.5M KCl, 100 mM TrisCl pH8, 100 mM MgCl2, 5% PEG, 37° C. 30 min, 100 nM SP RNA), the “p6AT-1 cleavage, maximal level” value stood at 27%. The “pre-tRNAphe processing, RNA-only” value in data set [3] is listed as “efficiently processed”. For the same molecule, the ptRNAmet substrate processed result is listed as “more than 50%” in data set [4] (150 mM KCl) and 82% in data set [4] (800 mM KCl). Further, in data set [4] (KCl 1M or above), the ptRNA cleaved amounted to 85%.

Values taken from US6649744B1, “Rnase P polypeptides, polynucleotides, and methods using their mechanisms of action” (SmithKline Beecham Corporation, priority 1999, dated 2003).
